Laboratory results from paper PMC6683012.

B1: QSK1-nYFP [Arabidopsis] / SIRK1-cYFP [Arabidopsis] (parent)
chain 1: SDLESDRRALLAVRNSVRGRPLLWNMSASSPCNWHGVHCDAGRVTALRLPGSGLFGSLPIGGIGNLTQLKTLSLRFNSLSGPIPSDFSNLVLLRYLYLQGNAFSGEIPSLLFTLPSIIRINLGENKFSGRIPDNVNSATRLVTLYLERNQLSGPIPEITLPLQQFNVSSNQLNGSIPSSLSSWPRTAFEGNTLCGKPLDTCEAESPNGGDAGGPNTPPEKKDSDKLSAGAIVGIVIGCVVGLLLLLLILFCLCRKRKKEENVPSRNVEAPVAAATSSAAIPKETVVVVPPAKATGSESGAVNKDLTFFVKSFGEFDLDGLLKASAEVLGKGTVGSSYKASFEHGLVVAVKRLRDVVVPEKEFRERLHVLGSMSHANLVTLIAYYFSRDEKLLVFEYMSKGSLSAILHGNKGNGRTPLNWETRAGIALGAARAISYLHSRDGTTSHGNIKSSNILLSDSYEAKVSDYGLAPIISSTSAPNRIDGYRAPEITDARKISQKADVYSFGVLILELLTGKSPTHQQLNEEGVDLPRWVQSVTEQQTPSDVLDPELTRYQPEGNENIIRLLKIGMSCTAQFPDSRPSMAEVTRLIEEVSHSSGSPNPVSD
chain 2: VTETELRSLLEFRKGIRDETSHQRISWSDTSSLTDPSTCPNDWPGISCDPETGSIIAINLDRRGLSGELKFSTLSGLTRLRNLSLSGNSFSGRVVPSLGGISSLQHLDLSDNGFYGPIPGRISELWSLNHLNLSSNKFEGGFPSGFRNLQQLRSLDLHKNEIWGDVGEIFTELKNVEFVDLSCNRFNGGLSLPMENISSISNTLRHLNLSHNALNGKFFSEESIGSFKNLEIVDLENNQINGELPHFGSQPSLRILKLARNELFGLVPQELLQSSIPLLELDLSRNGFTGSISEINSSTLTMLNLSSNGLSGDLPSSFKSCSVIDLSGNTFSGDVSVVQKWEATPDVLDLSSNNLSGSLPNFTSAFSRLSVLSIRNNSVSGSLPSLWGDSQFSVIDLSSNKFSGFIPVSFFTFASLRSLNLSRNNLEGPIPFRGSRASELLVLNSYPQMELLDLSTNSLTGMLPGDIGTMEKIKVLNLANNKLSGELPSDLNKLSGLLFLDLSNNTFKGQIPNKLPSQMVGFNVSYNDLSGIIPEDLRSYPPSSFYPGNSKLSLPGRIPADSSGDLSLPGKKHHSKLSIRIAIIVASVGAAIMILFVLFAYHRTQLKDFHGRNRFTDQATTRDTKFGRSSRPSLFNFSSNVEQQSSSLSFSNDHLLTANSRSLSGIPGCEAEISEQGAPATSAPTNLLDDYPAASGRKSSSGGSPLSSSPRFSDQPVMLDVYSPDRLAGELFFLDVSLKLTAEELSRAPAEVLGRSSHGTLYKATLDNGHMLTVKWLRVGLVRHKKDFAREAKKIGSLKHPNIVPLRAYYWGPREQERLLLSDYLRGESLAMHLYETTPRRYSPMSFSQRLKVAVEVAQCLLYLHDRAMPHGNLKPTNIILSSPDNTVRITDYCVHRLMTPSGVAEQILNMSALGYSAPELSSASKPIPTLKSDVYAFGVILMELLTRRSAGDIISGQTGAVDLTDWVRLCDQEGRRMDCIDRDIAGGEEFSKGMEDALAVAIRCILSVNERPNIRQVLDHLTSISA
B2: SIRK1-cYFP [Arabidopsis] / QSK2-nYFP [Arabidopsis] (parent)
chain 1: B1 chain 2
chain 2: DLEADRRALIALRDGVHGRPLLWNLTAPPCTWGGVQCESGRVTALRLPGVGLSGPLPIAIGNLTKLETLSFRFNALNGPLPPDFANLTLLRYLYLQGNAFSGEIPSFLFTLPNIIRINLAQNNFLGRIPDNVNSATRLATLYLQDNQLTGPIPEIKIKLQQFNVSSNQLNGSIPDPLSGMPKTAFLGNLLCGKPLDACPVNGTGNGTVTPGGKGKSDKLSAGAIVGIVIGCFVLLLVLFLIVFCLCRKKKKEQVVQSRSIEAAPVPTSSAAVAKESNGPPAVVANGASENGVSKNPAAVSKDLTFFVKSFGEFDLDGLLKASAEVLGKGTFGSSYKASFDHGLVVAVKRLRDVVVPEKEFREKLQVLGSISHANLVTLIAYYFSRDEKLVVFEYMSRGSLSALLHGNKGSGRSPLNWETRANIALGAARAISYLHSRDATTSHGNIKSSNILLSESFEAKVSDYCLAPMISPTSTPNRIDGYRAPEVTDARKISQKADVYSFGVLILELLTGKSPTHQQLHEEGVDLPRWVSSITEQQSPSDVFDPELTRYQSDSNENMIRLLNIGISCTTQYPDSRPTMPEVTRLIEEVSRSPASPGPLSD
B3: SIRK1-cYFP [Arabidopsis] / QSK1-nYFP [Arabidopsis] (parent)
chain 1: B1 chain 2
chain 2: B1 chain 1

Variants of: B1
Assay: ratiometric bimolecular fluorescence complementation (rBiFC)
Details: with SIRK1-cYFP [Arabidopsis]; n=14 cells (parent n=10); value is box-plot median; parent: 0.9; read off a plot

response | Variant
1 | chain 1 S598A S603A

Same assay, conditions: with SIRK1-cYFP [Arabidopsis]; n=12 cells (parent n=10); value is box-plot median; parent: 0.9; read off a plot

response | Variant
1.8 | chain 1 S598D S603D

Variants of: B2
Assay: as above
Details: with QSK2-nYFP [Arabidopsis]; n=35 cells (parent n=32); value is box-plot median; parent: 1.6; read off a plot

response | Variant
1.7 | chain 1 S723D

Same assay, conditions: with QSK2-nYFP [Arabidopsis]; n=34 cells (parent n=32); value is box-plot median; parent: 1.6; read off a plot

response | Variant
0.15 | chain 1 S723A

Variants of: B3
Assay: as above
Details: with QSK1-nYFP [Arabidopsis]; n=10 cells (parent n=10); value is box-plot median; parent: 0.9; read off a plot

response | Variant
1.3 | chain 1 S723D
0.18 | chain 1 S723A
